T1: TSEN54, subunit of full-length, catalytically inactive human TSEN (human, UniProt Q7Z6J9 1-526)
T1 sequence (looked up): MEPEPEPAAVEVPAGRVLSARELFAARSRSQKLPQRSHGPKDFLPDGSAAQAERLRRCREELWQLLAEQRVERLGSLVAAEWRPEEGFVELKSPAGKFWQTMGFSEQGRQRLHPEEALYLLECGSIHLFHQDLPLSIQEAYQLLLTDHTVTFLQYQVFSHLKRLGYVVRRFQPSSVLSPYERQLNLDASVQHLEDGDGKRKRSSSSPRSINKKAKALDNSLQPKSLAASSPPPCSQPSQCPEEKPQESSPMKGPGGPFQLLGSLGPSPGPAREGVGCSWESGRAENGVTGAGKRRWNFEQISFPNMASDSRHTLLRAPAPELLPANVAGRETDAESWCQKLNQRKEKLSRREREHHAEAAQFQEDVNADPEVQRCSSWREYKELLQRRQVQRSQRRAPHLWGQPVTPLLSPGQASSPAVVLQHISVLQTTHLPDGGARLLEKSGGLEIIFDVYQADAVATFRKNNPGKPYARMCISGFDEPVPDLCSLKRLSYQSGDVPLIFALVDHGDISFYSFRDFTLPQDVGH

B1: TSEN34^H255F, subunit of full-length, catalytically inactive human TSEN (natural protein, UniProt Q9BSV6 1-310, looked up)
chain: MLVVEVANGRSLVWGAEAVQALRERLGVGGRTVGALPRGPRQNSRLGLPLLLMPEEARLLAEIGAVTLVSAPRPDSRHHSLALTSFKRQQEESFQEQSALAAEARETRRQELLEKITEGQAAKKQKLEQASGASSSQEAGSSQAAKEDETSDGQASGEQEEAGPSSSQAGPSNGVAPLPRSALLVQLATARPRPVKARPLDWRVQSKDWPHAGRPAHELRYSIYRDLWERGFFLSAAGKFGGDFLVYPGDPLRFFAHYIAQCWAPEDTIPLQDLVAAGRLGTSVRKTLLLCSPQPDGKVVYTSLQWASLQ

Assays:
[1] = biological target: T1, TSEN54, subunit of full-length, …; assay: cryo-EM structure
[2] = biological target: B1; assay: cryo-EM structure

| Binder | binding result [1] | binding result [2] |
| --- | --- | --- |
| B1 | binds |  |
| TSEN15, subunit of full-length, catalytically inactive human TSEN (natural protein, UniProt Q8WW01 1-171, looked up) MEERGDSEPTPGCSGLGPGGVRGFGDGGGAPSWAPEDAWMGTHPKYLEMMELDIGDATQVYVAFLVYLDLMESKSWHEVNCVGLPELQLICLVGTEIEGEGLQTVVPTPITASLSHNRIREILKASRKLQGDPDLPMSFTLAIVESDSTIVYYKLTDGFMLPDPQNISLRR |  | binds |
| TSEN2^H377F, subunit of full-length, catalytically inactive human TSEN (natural protein, UniProt Q8NCE0 1-465, looked up) MAEAVFHAPKRKRRVYETYESPLPIPFGQDHGPLKEFKIFRAEMINNNVIVRNAEDIEQLYGKGYFGKGILSRSRPSFTISDPKLVAKWKDMKTNMPIITSKRYQHSVEWAAELMRRQGQDESTVRRILKDYTKPLEHPPVKRNEEAQVHDKLNSGMVSNMEGTAGGERPSVVNGDSGKSGGVGDPREPLGCLQEGSGCHPTTESFEKSVREDASPLPHVCCCKQDALILQRGLHHEDGSQHIGLLHPGDRGPDHEYVLVEEAECAMSEREAAPNEELVQRNRLICRRNPYRIFEYLQLSLEEAFFLVYALGCLSIYYEKEPLTIVKLWKAFTVVQPTFRTTYMAYHYFRSKGWVPKVGLKYGTDLLLYRKGPPFYFASYSVIIELVDDHFEGSLRRPLSWKSLAALSRVSVNVSKELMLCYLIKPSTMTDKEMESPECMKRIKVQEVILSRWVSSRERSDQDDL | binds |  |
